Reference: the DeepSol protein solubility set

Assay: soluble on expression in E. coli; label from the status in PepcDB or PDB records

Soluble on expression in E. coli, not soluble:
MGSDKIHHHHHHMNWLNLRAIVPSDKQNMPNKKNKAAFARTVTKNGAPDVSDIKNSYDDLMYESGAFSQTAINNLEARARLMGLQPAPAANAKVLELGCSMGGNIITQALYYPDAEFTGIDLSGRQVAQGNAIIEKMGLKNVRLEEKDILTVDESFGKFDYIIVHGIWSWVPDAVKDKIFSICRNNLTEHGIAYISYNVYPGWKRQEQLREIMQFSGRDVLEEPLEARTRKGLDALKALAEILENDKGLGGGGKLPAIQKILNHNFYYIAHEYMEAFNDPIYVNGFIEWANRHRLAYIGDTDLHVSFVSWMAEHTRERILALAGGDYIAKEFYSDILSDRQFRRSLLCREEVGDTVRRDESVAVEVIESLNFRPARGETINFDENDTLLSGIRDVMKTGEPFKTEDVAENLARRFPGLTFDRMKINSQLLLQTILGRFSVSSDNAGKPFFEDHKTYVPARFTDYVAAFVEHGAEAFVRPANRYNESTPSFGYGHLYIMRQLSRPTSKQAVIDAVAENLNIVSTTPDGLTFHPPAEVYVEEILADLADRHFLVSAD
MGSDKIHHHHHHMNYPQEKIKPYSNDGKKSEQVEQMFDNIAPAYDQLNHTLSLGIDRSWRRKAINWLKPFRPQQIMDVATGTGDFAILACHELQPEQLIGTDISEGMMNVGREKVKKEGLSEKISFAREDCTSLSFADNRFDAITVAFGIRNFEDLDKGLSEMYRVLKTGGHLVILELTTPDRFPMKQMFTIYSKIVIPTLGKLLSKDNSAYSYLPQTIKAFPQGEVMKNVISRVGFSQVQFRRLTFGICTLYTATK
MGSDKIHHHHHHMPAIAFIDISGSPFQAGQALGRFGASAVRDHLLHTDAWRSVMRWRGTEQAALMAAQVQARFPRIWDELKGLADGLGLPLEDTFLWNCRGDVWAMSPDGCTTVQVPGAHRRRISHNEDGDPGFSGHCAIAQCHIAGSPGFASFVYPGSLPGHTFAATELGLAMTVNNLRYRNTTAGVPRMVLTRAVLDAPDLDKALAVLRDNPHAGGFHLTLGHCRSTALLSVEFSAYGCSVLDITQTSMHANHAIHPQMRDHPQIVTGSSGHRQMRGDTVIADAARDGREIDPLELLADTAHPSFPIYRDDPHDSDGENTQATADMRVGPTCIEWEVYEQPGTAPRYRMINGHTREEDATDAGARPDVQSRH
MGSDKIHHHHHHMPFDDIQCSPLLVRDGTDNIMQVLSDTDKPTASAQRDMPQEFLPPRCTFSAEDWRILARQWYPVARSVDVKSSPVAVTLLDLELVTYRTPAGVHVARDLCPHRGVPLSMGCVEGDELVCAYHGLRYAADGQCRKIPAQPELKPSAKFRLTVFPAVERYGLVWTCLNPQGGEANLPPMPSWGDPLCQSILPPFVDIAGSAGRQVEGFVDVAHFAFVHHDAFADRNRPEVPMYQTEFTDFGLRTEYWSNVSNYPKALQHLAPDDFSWLRVYEIYPPFCARLTVHFPNEGRLNILNAASPVSARKTRLFVPITRNFDTTGSLDDVYAFNAQIFAEDQAIVERQRPEDLPLDMQAEAHFAADRTSVGYRRLLREMGLTMAYAG
MGSDKIHHHHHHMPFKAKDQQGNIVLATDFKSVLEIRKNFPKGSLFCPFCQTLMFPRKRQNTSLHFVHTHPCTTVMEHHPESPEHLQGKLEISKYFQEVYKGMIDAQEAFIEIEHPISEAGKNGRIADVAVVFSTGYRIIGECQLAKIEAADIYQRTQDYYSISADVLWFLGGAADTPENRQAAVDLDVFAGTINFTYST
MGSDKIHHHHHHMPFLLFKFPGKRVLGFSFEGRPHRHATGLSRFLDVHGAAYACELGRLSSELVGASEGALLKRLESLYDEILIDEVQDLSAHDWEIVDALLHSSIHIRMVGDIRQSVLATNPRSTKNKQYAYAETVKWFREREQLGRLAIRESVETWRCHPKIAAFSDTIFDASWAFPSTVSRNDAMTDHDGVFLLTKKHVRDYVERFAPQCLRSMAGSGKEFNLDFMNFKVAKGSTFERVLIMPTAGITDFVRKGSSLEPVPAASFYVAVTRAAQSVAMVIDNAGASTLPYWTP
MGSDKIHHHHHHMPFRRPCAINRPPLTSGCQGHPLSSRRAAQGPGGFFYRHKDMAMTQKRALGLDFGTTNTVMALSDTGSASHSMRFTSSAGTDDSMRTALSFMKDAGLGAAALHVEAGQAAIRQFIDNAGDCRFLQSIKTFAASPLFQGTLIFAKRQSFEDLMEVFLRKLKTYAGSEWPGDVSTVIAGRPVRFAGSNPDETLALARYNEALTRAGFPEIHYVYEPVAAAYYFAQSLKKDANVLVADFGGGTTDYSLIRFETHAGKLSATPIGHSGVGVAGDHFDFRMIDNLVSPEIGKGSKFKSFDKVLDVPSGYYVNFGRWNQLSIFKTSKEFTDLKSLVRSALEPDKLELFIDLVEHDEGYPLYQAISATKMALSSAQEAEFNFSPLGKAGRKMVKRSDFNNWIADDLAKIEGALDEVLEKTKVAPEAIDKVFLTGGTSFVPAVRELFTRRFDADRIESGGELLSIAHGLAMIGESGDIQRWTA
MGSDKIHHHHHHMPKLIIDADDFGLSKAINHGIIESYKTGITTSTLLMPNLETAEHAIALAKNHPDLFIGQHTNFLLGKPCANPAEIPSLVDENGEFHRSKYYRANPELKFQYEDVRTETIAQMERFKALTGHYPEHIDCHSIGDETVDQAFFDIAREFGIHTTLKYSGDKKWSDQEGYLPITKLLESGALPYTNGGVSVENFLNDDFGLLKLAPNEIAEMHFDVGFLDQFVLDNSSYTLMRCRELATICDVRVRDWLLENGFELITFGDLQR
MGSDKIHHHHHHMPKNLYNYQEFIRLSHEGKIAFEQIDVPKNASLLTEKIDIDNHIYLVVDGYIALILNDGSQNPKIYSIQGKGTFLNYFTLLDRSNNHFNFKTLSGCSLYKYSKADMEYFLSMFPENFGFQFFIMKNQTTHIYFKSLMASSPASEKLKTTFSNMALLHGVLSDDDTVILPQAIKTSHLLSYSNLSKSCFYKDLQHLKTTNQIEKKEKSWIIHDQELYAMIQNGQTSF
MGSDKIHHHHHHMPKRFEWLFYAFIAFALYSCNGSSRGKGTEVETVSIDTADFNFPVRFEYAKGIQTVNHTGYKTVYIFHPDKPDTMAVYILYPRDSKRPVARHPKALYIPVPARTIACLSTTQIGSLPLLDQTDKLVGCINLKNICNADIRNRIKKGYVQEIGTGMTKNIEQIAGLRPEILLQDLFHVSDKDEELIASGINTVLYNEWKERDLLGRAEWMKLTAMLLSCNRRAHEVFEQIESEYAEARKLVAEKTDTIAIMYGQDYNGTWYLPGEYSYSTAMFRDARVSFDYAAGKVSSQPCSFEYIFSRHRHAEIWICTMMGNIKTMDEFLALNERYRHFDATQTGKVYIDRKRVNENGGNDYWESGLYRPDLLLKDIIKITRPELLPEYETSYWIELKRP
MGSDKIHHHHHHMPLLDVRNLTIELDTPHGRVRALEKVSLTLNAGEIHGLVGESGSGRSLLARAILGIPGPNWTITADRMMWDGNNLMAMSSKERRNLMGSDMAMIFQDPSGSLDPAQTVGSQLMQAMPKNPNAYFWQKRRHARLTAQKWLHKVGIKNPRQVMSSYAWELSEGECQKVMIAMAVANQPRLLIADEPTSSMELSTQAQIFRLLSQLNQLQNVSILLISHELETLAQWCDHLSVLYCGQVMESGPTDEVIKQPYHPYTKALLDNMPDYSGSGGHKAIMPTLPGSAPALQHLPIGCRLGPRCPEAQKKCVNQPNLSHIKDRYFACHFPYHGETHNDDPTA
MGSDKIHHHHHHMPQITIIVPVYNAERTLERCVRSIQAQTVVNWELLLIDDGSEDYSSKLCDEYAIQDSRIRVFHQVNGGASSARNVGLEYTKGEWVVFCDSDDWVDSNWLELFKNQIDNGTELIVQGFIPHGNLWQSRTGINFHGNVKTGILKLQEENILGFMCTKMYKREIIEQCGLRFDTELVLREDELFMLQYAEYISTIQCMEEGAYHYDMPDFSTKYGNIDLFNMFLKIYVVLKRIFSGEDNLLLQNYENDLTQSLFHSFVMRHDDRCKKLENYRKEVGKRVLGVKSLSQFSKYILAYVPSFQVAYLLLEAKAKIVKSMQ
MGSDKIHHHHHHMPQLRDSGNHSTAPLDAHTKDEIQSFARIFGIETEYGVSVTGSDRPCDAGQTAMMMFQPIVAEARSTNTYIENGSRLYLDVGSHPEYATAEARDPMDALALDAAGELVMRDLALDAQRRLRSIQGAGSTVHVFKNNVDSAGHSFGCHENYLVRRFVPLKTIEQELLPFLITRQLFTGAGRMGEQGFQITQRADFLDEAVSSATTRSRPMVNTRDEPHADPDAFRRLHVIIGDSNRSQWATMMKLATTHLVLCVIEQAGREGKDSGFARFSFADASAANHKVSRDLTGVEASFDMADGTVMEGGAVAIQERYLEIVERFVGQHPEVCSSLPRTDVHEVIRRWRRVIEAFRSGVSETFADKVDWLAKRRLFDMLRNRAGGRLSVSKLEQLDMDYHDVANGALYASLCRRGAMRTLVNESQAHEAIDVPPHDTRAALRGRFIQSARSHNAQYSCDWTRLSLTSPNRMDVTLLDPFDAQPSDRFLTILEALQ
MGSDKIHHHHHHMPQRLYTYPPLLRGRLLQRYKRFFADIELDSGETITAHCPNTGPMTGVCQMGNLVYVSKSDNPKRKLAYTWELIEVTDNEPTWVGVNTGLPNRVVQALLEQRCLPVLGDYGEVQREVPYGENSRIDFRLTGDRPIYVEVKNTTWTAGRLALFPDTVTTRGQKHLRELTAILLEARAVMLYFINRGDCTAFAPGDSADPTYGQLLRTGIAAGLEVYPCQFQISPEGIDFLGVAPLQL
MGSDKIHHHHHHMPRSPSSQYLAIESLSRYAREERESALGIIRNVLQMSDIAPGRFNAAMQAVAMHGRIALHFHPDRFDSRGLTVAEGLLQDGRYRCQFETHISSGLLSPEIGGARDHWERQFFRELTTDIAARPKYGALDLLLAPNGPAPRFGSCYFLTKPEVLSRATFCFNDSYRNPRDKGTADAFEMVMAALLTESFERRYALGEHGLAPAKLVERLVSTLGEDIVMRFERGLSGNLDHYIEAQIHGPLSLAEDMEALVADPSFRGTEIEPLLRSIAERYQIALYWHSGLCLDVEHVVRDFRGAGMPSLAQRLAIDGNVTAYAIGVAAREVSRFPTRWRARGHKTEVLSELKWLWHLLVRYGAARDERETSFMLDESAPLQENVQAEPGGNDATCVQGTCKEEGFEASVTTEGAHTADAAAAVKDNSAS
MGSDKIHHHHHHMPSETIKLTAKFKLKEIPNGLDVLFSTYREIVNFLISYAYENNITSFYRLKKETYKNLRKEYPELPSHYHYTAIDMATKIYRGYRKRRGKAKGKPVFKKEVIMLDDHLFKLDFEKRIVKLSTPSGRIELEFYPAKYHEKFKGWKVGQAWLVKTPKGLFINVVFSREVEIREPENFIGVDLNENNVTLCLPKGEFIQIITHEREIRTGYFVKRRKIQKNLRVGKKREELLEKYGSRERNRVDDLYHKLANKIVELAEKYGGIALEDLTEIRDSIRYSAELNGRLHRWSFRKLQRIIEYKAKLRGIKVIFVNPAYTSTLCPICGGKLSPNGHRVLKCKCGFEADRDVVGSWNVRLKALKMWGVTVPPESHPMKKGGWKVSRIDITQITADQNGYFMRRLRRALLLQ
MGSDKIHHHHHHMPSIFEKYQLKQVINASGRMTALGVSTPRPEVIDAAMAGMNQYFEMKDLVNKTGEYIAKLLEVEGATVVSCASAGLAQSVAAVLVQDSDWLLENLHVTPIENNEIVLPKGHNVNFGAPVGTMVALGGGKLVEAGYANECSAAQLAAAITPRTAAILYIKSHHCVQKSMLSVEQAAVVARTHNLPLIVDAAAEEDLQCYYRVGADLVIYSGAKAIEGPTSGLVIGKTQYVEWVKRQSAGIGRAMKVGKEGIVGLTCAIELYLRAQKESGAEMVEKMAPFIDTLNTFNGVSARVVWDSAGRDIARTEIKFDEAVTGIATGELVDALKQGEYAIYFRGYKANEGIIEADVRSVDRAQLAIVARRIGEVINQEKQA
